# Measurements reported in US20160052997A1 (CELLTRION, published 2016).
# Residue numbers refer to the chain shown, from its start. Where “and” joins values, the source holds several entries; their conditions need not be identical. Identical values can stand only once. Like-named read-outs stand apart in the source and are kept apart here.
# B1: CT104 (antibody, V domains shown)
# VH: QVQLVQSGAEVKKPGSSVKVSCKASGGTLNNYAISWVRQAPGQGLEWMGGISPIFGTLNYAERFQGRVTITADVFTNTVYMELSSLRSEDTAVYFCARGCGYNCYYFDGWGQGTLVTVSS
# VL: EIVLTQSPGTLSLSPGERATLSCRASQSLSSSSLVWYQQKPGQAPRLLIYGASSRATGIPDRFSGSGSGTDFTLTISRLEPEDFAVYYCQQYGNSPYTFGQGTQVEIKR
# B2: CT123 (antibody, V domains shown)
# VH: QVQLVESGGGVVQPGRSLRLSCAASGFTFSRFGIHWVRQAPGKGLEWMAVIWYDGSNKFYADSVKGRFTISRDNSKNTVYLQMNSLRAEDTAVYYCAKDSRGYCSSIICFEGGLDNWGQGTLVTVSS
# VL: B1 VL with I2T, L29V, S31I, S33Y, V35A, Q39R, S54R, N94S, Q104K, V105L
# B3: CT120 (antibody, V domains shown)
# VH: QVQLVQSGAEVKMPGSSVKVSCKTSGVFFSSHAISWVRQAPGQGLEWMGGISPMFGTTHYAQKFQGRVTITADQSTTTAYMELTSLTSEDTAVYYCARDGAGSYYPLNWFDPWGQGTLVTVSS
# VL: EIVLTQSPATLSLSPGERATLSCRASENIWNNLAWYQQKPGQAPRLLISGASTGATGVPSRFRGSGSRTEFTLTISSLQSEDFAIYFCQQYNSWPRTFGPGTKVEIKR
# B4: CT149 (antibody, V domains shown)
# VH: QVQLVQSGAEVKKPGASVKVSCKTSGYSFSTYGVSWVRQAPGQGPEWVGWISAYTGITDYAQKFQGRVTLTTDATTATAFLDLRSLRPDDTATYFCARDKVQGRVEVGSGGRHDYWGQGTLVIVSS
# VL: EVVLTQSPGTLALPPGERATLSCRASHRVGSTYIAWYQQKSGQAPRRLIYGASNRATDIPDRFSGSGSGTDFTLTIRRLEPEDSAVYYCQQFSVSPWTFGQGTRVEIKR
# Columns and labels:
# [1] = biological target: T1, HA of A/Texas/05/2009 (H1N1) virus (Influenza A virus A/Texas/05/2009 (H1N1)); assay: cell-based or functional assay
# [2] = biological target: T2, HA of A/New York/18/2009 (H1N1) virus (Influenza A virus A/New York/18/2009 …); assay: cell-based or functional assay
# [3] = biological target: T3, HA of A/Solomon Islands/2006 (H1N1) virus (Influenza A virus A/Solomon …); assay: cell-based or functional assay
# [4] = biological target: T4, HA of A/Ohio/83 (H1N1) virus (Influenza A virus A/Ohio/83 (H1N1)); assay: cell-based or functional assay
# [5] = biological target: T5, purified recombinant HA protein of H1N1 (A/Solomon Island/03/06) (Influenza A virus A/Solomon …)
# [6] = biological target: T1, HA of A/Texas/05/2009 (H1N1) virus; assay: cell-based or functional assay; remark: listed apart in the source
# [7] = biological target: T2, HA of A/New York/18/2009 (H1N1) virus; assay: cell-based or functional assay; remark: listed apart in the source
# [8] = biological target: T3, HA of A/Solomon Islands/2006 (H1N1) …; assay: cell-based or functional assay; remark: listed apart in the source
# [9] = biological target: T4, HA of A/Ohio/83 (H1N1) virus; assay: cell-based or functional assay; remark: listed apart in the source
# [10] = biological target: T6, HA of A/Ohio/07/2009 (H1N1) virus (Influenza A virus A/Ohio/07/2009 (H1N1)); assay: cell-based or functional assay
# [11] = biological target: T7, HA of A/Ann Arbor/6/60 ca (H2N2) virus (Influenza A virus A/Ann Arbor/6/60 ca …); assay: cell-based or functional assay
# [12] = biological target: T8, HA of Anhui/1/05 (H5N1) virus (Influenza A virus A/Anhui/1/05 (H5N1)); assay: cell-based or functional assay
# [13] = biological target: T9, HA of A/ck/HK/G9/97 (H9N2) virus (Influenza A virus A/ck/HK/G9/97 (H9N2)); assay: cell-based or functional assay
# [14] = biological target: HA of A/Green-winged teal/209/TX/2009 (H9N2) virus (Influenza A virus A/Green-winged …); assay: cell-based or functional assay
# [15] = biological target: T10, HA of A/Wisconsin/67/05 (H3N2) virus (Influenza A virus A/Wisconsin/67/05 …); assay: cell-based or functional assay
# [16] = biological target: T11, HA of A/Brisbane/10/07 (H3N2) virus (Influenza A virus A/Brisbane/10/07 …); assay: cell-based or functional assay
# [17] = biological target: HA of A/turkeyNirginia/02 (H7N2) virus (Influenza A virus A/turkey/Virginia/02 …); assay: cell-based or functional assay
# [18] = biological target: T1, HA of A/Texas/05/2009 (H1N1) virus; assay: cell-based or functional assay; remark: listed apart in the source
# [19] = biological target: T3, HA of A/Solomon Islands/2006 (H1N1) …; assay: cell-based or functional assay; remark: listed apart in the source
# [20] = biological target: T4, HA of A/Ohio/83 (H1N1) virus; assay: cell-based or functional assay; remark: listed apart in the source
# [21] = biological target: T6, HA of A/Ohio/07/2009 (H1N1) virus; assay: cell-based or functional assay; remark: listed apart in the source
# [22] = biological target: T7, HA of A/Ann Arbor/6/60 ca (H2N2) virus; assay: cell-based or functional assay; remark: listed apart in the source
# [23] = biological target: T8, HA of Anhui/1/05 (H5N1) virus; assay: cell-based or functional assay; remark: listed apart in the source
# [24] = biological target: T9, HA of A/ck/HK/G9/97 (H9N2) virus; assay: cell-based or functional assay; remark: listed apart in the source
# [25] = biological target: HA of A/PuertoRico/8/34 (H1N1) virus (Influenza A virus A/PuertoRico/8/34 …, UniProt P03452 18-565); assay: cell-based or functional assay
# [26] = biological target: T5, purified recombinant HA protein of H1N1 …; assay: SPR, Biacore T200, HA captured via anti-6x his tag antibody, 25 C
# [27] = biological target: T10, HA of A/Wisconsin/67/05 (H3N2) virus; assay: cell-based or functional assay; remark: listed apart in the source
# [28] = biological target: T12, HA of A/Hong Kong/68 (H3N2) virus (Influenza A virus A/Hong Kong/68 (H3N2)); assay: cell-based or functional assay
# [29] = biological target: T11, HA of A/Brisbane/10/07 (H3N2) virus; assay: cell-based or functional assay; remark: listed apart in the source
# [30] = biological target: T12, HA of A/Hong Kong/68 (H3N2) virus; assay: cell-based or functional assay; remark: listed apart in the source
# [31] = biological target: HA of A/Sydney/5/97 (H3N2) virus (Influenza A virus A/Sydney/5/97 (H3N2)); assay: cell-based or functional assay
# [32] = biological target: HA of A/Beijing/32/92-R-H3N2 PR8 virus (Influenza A virus A/Beijing/32/92 (H3N2)); assay: cell-based or functional assay
# [33] = biological target: HA of A/Perth/16/09 (H3N2) virus (Influenza A virus A/Perth/16/09 (H3N2)); assay: cell-based or functional assay
# [34] = biological target: HA of A/Anhui/1/2013 (H7N9) virus (Influenza A virus A/Anhui/1/2013 (H7N9)); assay: cell-based or functional assay
# [35] = biological target: HA of A/Shanghai/2/2013 (H7N9) virus (Influenza A virus A/Shanghai/2/2013 …); assay: cell-based or functional assay
binder,measurement,setting,value
B1,MN test: lowest antibody concentration at which no virus antigen was detected,[1],0.313 µg/mL
same,MN test: lowest antibody concentration at which no virus antigen was detected,[2],0.625 µg/mL
same,MN test: lowest antibody concentration at which no virus antigen was detected,[3],0.625 µg/mL
same,MN test: lowest antibody concentration at which no virus antigen was detected,[4],0.313 µg/mL
B2,MN test: lowest antibody concentration at which no virus antigen was detected,[1],0.313 µg/mL
same,MN test: lowest antibody concentration at which no virus antigen was detected,[2],0.625 µg/mL
same,MN test: lowest antibody concentration at which no virus antigen was detected,[3],1.25 µg/mL
same,MN test: lowest antibody concentration at which no virus antigen was detected,[4],0.313 µg/mL
B3,Kd,[5],2.82 nM
same,MN test: lowest antibody concentration at which no virus antigen was detected,[1],0.313 µg/mL
same,MN test: lowest antibody concentration at which no virus antigen was detected,[2],0.313 µg/mL
same,MN test: lowest antibody concentration at which no virus antigen was detected,[3],0.625 µg/mL
same,MN test: lowest antibody concentration at which no virus antigen was detected,[4],0.156 µg/mL
same,MN test: lowest antibody concentration at which no virus antigen was detected,[6],0.156 µg/mL
same,MN test: lowest antibody concentration at which no virus antigen was detected,[7],0.313 µg/mL
same,MN test: lowest antibody concentration at which no virus antigen was detected,[8],0.625 µg/mL
same,MN test: lowest antibody concentration at which no virus antigen was detected,[9],0.156 µg/mL
same,MN test: lowest antibody concentration at which no virus antigen was detected,[10],0.039 µg/mL
same,MN test: lowest antibody concentration at which no virus antigen was detected,[11],0.312 µg/mL
same,MN test: lowest antibody concentration at which no virus antigen was detected,[12],0.625 µg/mL
same,MN test: lowest antibody concentration at which no virus antigen was detected,[13],0.078 µg/mL
same,MN test: lowest antibody concentration at which no virus antigen was detected,[14],0.625 µg/mL
same,MN test: lowest antibody concentration at which no virus antigen was detected,[15],> 10 µg/mL
same,MN test: lowest antibody concentration at which no virus antigen was detected,[16],> 20 µg/mL
same,MN test: lowest antibody concentration at which no virus antigen was detected,[17],> 20 µg/mL
same,"EC50, microneutralization test",[18],1.19 µg/mL
same,"EC50, microneutralization test",[19],0.25 µg/mL
same,"EC50, microneutralization test",[20],0.26 µg/mL
same,"EC50, microneutralization test",[21],0.14 µg/mL
same,"EC50, microneutralization test",[22],6.53 µg/mL
same,"EC50, microneutralization test",[23],6.92 µg/mL
same,"EC50, microneutralization test",[24],3.12 µg/mL
same,"EC50, microneutralization test",[25],0.33 µg/mL
same,Kd,[26],2.79 nM and 2.85 nM
same,koff,[26],0.000684 s⁻¹ and 0.000703 s⁻¹
same,kon,[26],245000 M⁻¹ s⁻¹ and 246000 M⁻¹ s⁻¹
B4,Kd,[5],345 nM
same,MN test: lowest antibody concentration at which no virus antigen was detected,[27],1.25 µg/mL
same,MN test: lowest antibody concentration at which no virus antigen was detected,[28],2.5 µg/mL
same,MN test: lowest antibody concentration at which no virus antigen was detected,[29],1.25 µg/mL
same,MN test: lowest antibody concentration at which no virus antigen was detected,[6],> 10 µg/mL
same,MN test: lowest antibody concentration at which no virus antigen was detected,[7],> 10 µg/mL
same,MN test: lowest antibody concentration at which no virus antigen was detected,[8],> 10 µg/mL
same,MN test: lowest antibody concentration at which no virus antigen was detected,[9],> 10 µg/mL
same,MN test: lowest antibody concentration at which no virus antigen was detected,[10],5 µg/mL
same,MN test: lowest antibody concentration at which no virus antigen was detected,[11],> 10 µg/mL
same,MN test: lowest antibody concentration at which no virus antigen was detected,[12],0.625 µg/mL
same,MN test: lowest antibody concentration at which no virus antigen was detected,[13],0.312 µg/mL
same,MN test: lowest antibody concentration at which no virus antigen was detected,[14],0.156 µg/mL
same,MN test: lowest antibody concentration at which no virus antigen was detected,[15],1.25 µg/mL
same,MN test: lowest antibody concentration at which no virus antigen was detected,[30],2.5 µg/mL
same,MN test: lowest antibody concentration at which no virus antigen was detected,[16],1.25 µg/mL
same,MN test: lowest antibody concentration at which no virus antigen was detected,[17],10 µg/mL
same,"EC50, microneutralization test",[23],11 µg/mL
same,"EC50, microneutralization test",[24],7.39 µg/mL
same,"EC50, microneutralization test",[31],2.93 µg/mL
same,"EC50, microneutralization test",[32],1.36 µg/mL
same,"EC50, microneutralization test",[33],2.06 µg/mL
same,"EC50, microneutralization test (Contract Lab A)",[34],0.9 µg/mL
same,"EC50, microneutralization test (Contract Lab A)",[35],1.17 µg/mL
same,"EC50, microneutralization test (Contract Lab B)",[35],7.71 µg/mL
same,Kd,[26],368 nM and 323 nM
same,koff,[26],0.0904 s⁻¹ and 0.105 s⁻¹
same,kon,[26],246000 M⁻¹ s⁻¹ and 324000 M⁻¹ s⁻¹
